Target: T1, C. difficile RecA, activated (RecA*) (Clostridium difficile 630, UniProt Q18BJ4 1-348)
T1 construct: Protein RecA (recombinase A) of Clostridium difficile strain 630; also called RecA* (CD); source: E. coli BL21 (DE3), purified (Ni-NTA, PD10 desalting)
T1 sequence (looked up): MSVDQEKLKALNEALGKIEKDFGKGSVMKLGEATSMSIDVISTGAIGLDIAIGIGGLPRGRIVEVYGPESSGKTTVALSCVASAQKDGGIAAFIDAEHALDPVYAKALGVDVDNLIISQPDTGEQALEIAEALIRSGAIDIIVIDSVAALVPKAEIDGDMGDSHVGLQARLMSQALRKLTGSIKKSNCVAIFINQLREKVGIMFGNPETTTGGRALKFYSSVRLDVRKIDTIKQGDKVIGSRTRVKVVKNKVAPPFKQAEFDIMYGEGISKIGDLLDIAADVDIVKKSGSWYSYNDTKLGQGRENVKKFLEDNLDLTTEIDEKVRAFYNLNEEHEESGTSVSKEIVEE
Assay: SPR; Biacore X, 25°C; RecA* immobilised on the chip (~2000 response units); LexA (2.6 μM) incubated with non-specific 22-bp DNA (recA operator with six nucleotides changed, 1.4-8.1 μM) passed over at 10 μl/min for 60 s; 20 mM NaH2PO4 pH 7.4, 150 mM NaCl, 2 mM MgCl2, 1 mM DTT, 1 mM ATP, 0.005% P20
Details: both partners purified

B1: C. difficile LexA repressor (natural protein, Clostridium difficile 630, UniProt Q187P1 1-211, looked up)
chain: MYLDLTEKQVLILEFIKSQIILKGYPPAVREICTAVGLRSTSTVHSHLNKLEKLGYIRKDPTKPRAIEVLERSKVNDVSGANQEIIELPLVGQITAGEPILAQQNIEEYIPFPASLVKGSNNFVLRVKGESMINAGILDEDYVVVDKKNTALNSQIVVALINGESATVKRFFKEGNLIRLQPENDFMEPIMLNDSEVEIVGIVTGVFRVIK
notes: LexA repressor of Clostridium difficile strain 630; In the SPR with RecA* LexA was pre-incubated with 22-bp DNA; also called LexA (CD); DinR; source: E. coli BL21 (DE3), purified (Ni-NTA, PD10 desalting)
  binding result: binds

From publication PMC4234289, “The LexA regulated genes of the Clostridium difficile” (BMC Microbiology, 2014)
